Measured values from patent publication US9533055 (ARMAGEN TECHNOLOGIES, dated 2017).

Target: T1, HIR extracellular domain (ECD) (human, UniProt P06213 28-956, limits assumed)
T1 construct: extracellular domain; also called HIR ECD; human insulin receptor ECD
Assay: ELISA, plated HIR ECD, biotinylated goat anti-human IgG detection
Method: The affinity of the fusion protein for the HIR extracellular domain (ECD) was determined with an ELISA using the lectin affinity purified HIR ECD. CHO cells permanently transfected with the HIR ECD were grown in serum free media (SFM), and the HIR ECD was purified with a wheat germ agglutinin affinity column. The HIR ECD (0.2 μg/well) was plated on Immulon 2 high binding 96-well plates, and the binding of the chimeric HIRMAb, the HIRMAb-TNFR fusion protein, or human IgG1 to the HIR ECD was detected with a biotinylated goat anti-human IgG (H+L) antibody (0.3 μg/well), and the avidin biotinylated peroxidase detection system.

B1: chimeric HIRMAb (antibody, V domains shown)
VH: QVQLQQSGPELVKPGALVKISCKASGYTFTNYDIHWVKQRPGQGLEWIGWIYPGDGSTKYNEKFKGKATLTADKSSSTAYMHLSSLTSEKSAVYFCAREWAYWGQGTLVTVSA
VL: DIQMTQSPSSLSASLGERVSLTCRASQDIGGNLYWLQQGPDGTIKRLIYATSSLDSGVPKRFSGSRSGSDYSLTISSLESEDFVDYYCLQYSSSPWTFGGGTKMEIKR
notes: Human IgG1/kappa constant regions; also called MAb to HIR
EC50: 0.44 nM
